Measurements taken from US20130252901A1 (KIMONELLA VENTURES, published 2013).

T1: Ac-DAEFRHDSGYEVHHQKGGGGC-NH2, immobilized peptide fragment corresponding to the 1-16 region of the amyloid-β … (N-terminal acetyl (Ac); C-terminal amide (NH2); C-terminal cysteine bound to the CM5 chip through a thiol bond)
T1 construct: Synthetic 21-mer; Aβ 1-16 plus GGGG linker and Cys for immobilisation; also called ligand; target ligand
T1 peptide: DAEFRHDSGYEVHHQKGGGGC


Biological target: T1, Ac-DAEFRHDSGYEVHHQKGGGGC-NH2, …
Experiment: SPR, BIACORE T100, ligand immobilised on CM5 chip, peptide as analyte 50-2,000 µM, no zinc, kinetic fit

Binder	Kd [µM]	koff [s⁻¹]
Ac-RAEE-NH2 (also called ID; NO; 23) [Ac-RAEE-NH2]	7700	0.0112
Ac-KADE-NH2 (also called ID; NO; 15) [Ac-KADE-NH2]	4500	0.0096
Ac-KAED-NH2 (also called ID; NO) [Ac-KAED-NH2]	3300	0.019
Ac-HADD-NH2 (also called ID; NO) [Ac-HADD-NH2]	3250	0.0104
Ac-RADD-NH2 (also called ID; NO) [Ac-RADD-NH2]	13	0.00024
Ac-HAEE-NH2 (also called ID; NO; 19) [Ac-HAEE-NH2]	90	3.5e-05
Ac-DDAK-NH2 (also called ID; NO) [Ac-DDAK-NH2]	1370	0.0062
Ac-DEAR-NH2 (also called ID; NO; 12) [Ac-DEAR-NH2]	1980	0.00709

Biological target: T1, Ac-DAEFRHDSGYEVHHQKGGGGC-NH2, …
Experiment: SPR, BIACORE 3000, ligand immobilised on CM5 chip by thiol bond, peptide as analyte 0-25 µM, response at equilibrium; Example 1, BIACORE 3000, response at equilibrium
Method: The SPR spectroscopy experiments were conducted with the BIACORE 3000 apparatus. The reagents for immobilizing the amyloid-β peptide fragment (EDC, NHS, PDEA and cysteine) were bought from GE Healthcare (USA). The buffer used for immobilizing the peptide ligand by formation of thiol bonds was 10 mM sodium acetate at pH 4.5. The regeneration buffer was an HBS buffer containing a medium with 10 mM HEPES and 3 mM EDTA, 0.005% of surfactant P20 and 150 mM NaCl at pH 7.4. […] was a HBS buffer at pH 7.4 and a HEPES buffer at pH 6.8, 50 mM, with 100 μM of Zn(II) ions for the reactive tetrapeptide Ac-HAEE-NH₂. All the buffers were filtered before use.
The peptide fragment of the ligand was: Ac-[…]-NH₂, corresponding to the sequence SEQ. ID. NO.26. This peptide with 21 amino acids contains the 16 amino acids of the N-terminal end of the binding domain of the amyloid-β, i.e. […] (SEQ. ID. NO.25), followed by 4 glycine amino acids and a cysteine C-Terminal end. […]
The reagent Ac-HAEE-NH₂ was prepared by dilution with 7 concentrations, i.e. 0, 2, 5, 10, 15, 20 and 25 μM, and injected in a multichannel mode (20 μL QUICKINJECT, 5 μL/min). […] Next, the dissociation constant Kd was calculated in a known way from curves established for the response at equilibrium (Req) versus the concentration (M) in the BIA evaluation 4.1 program.

Binder	Kd [µM]
Ac-HAEE-NH2 (also called ID; NO; 19) [Ac-HAEE-NH2]	0.022

Biological target: T1, Ac-DAEFRHDSGYEVHHQKGGGGC-NH2, …
Experiment: SPR, BIACORE 3000, procedure of Example 1

Binder	binding result
Ac-AADD-NH2 (also called ID; NO; 32) [Ac-AADD-NH2]	no binding (tested: Kd from 10^-3 to 10^-4 M)
Ac-HAAD-NH2 (also called ID; NO; 33) [Ac-HAAD-NH2]	no binding (tested: Kd from 10^-3 to 10^-4 M)
Ac-AADE-NH2 (also called ID; NO; 35) [Ac-AADE-NH2]	no binding (tested: Kd from 10^-3 to 10^-4 M)
Ac-HADA-NH2 (also called ID; NO; 34) [Ac-HADA-NH2]	no binding (tested: Kd from 10^-3 to 10^-4 M)
Ac-RADA-NH2 (also called ID; NO; 36) [Ac-RADA-NH2]	no binding (tested: Kd from 10^-3 to 10^-4 M)
Ac-HAEA-NH2 (also called ID; NO; 30) [Ac-HAEA-NH2]	no binding (tested: Kd from 10^-3 to 10^-4 M)
Ac-AAEE-NH2 (also called ID; NO; 29) [Ac-AAEE-NH2]	no binding (tested: Kd from 10^-3 to 10^-4 M)
Ac-KAAE-NH2 (also called ID; NO; 38) [Ac-KAAE-NH2]	no binding (tested: Kd from 10^-3 to 10^-4 M)
Ac-RAAE-NH2 (also called ID; NO; 37) [Ac-RAAE-NH2]	no binding (tested: Kd from 10^-3 to 10^-4 M)
Ac-HAAE-NH2 (also called ID; NO; 31) [Ac-HAAE-NH2]	no binding (tested: Kd from 10^-3 to 10^-4 M)
Ac-RQISHAEEQE-NH2 (also called ID; NO; 53) [Ac-RQISHAEEQE-NH2]	no binding (tested: Kd from 10^-3 to 10^-4 M)
Ac-DERQISHAEE-NH2 (also called ID; NO; 58) [Ac-DERQISHAEE-NH2]	no binding (tested: Kd from 10^-3 to 10^-4 M)
Ac-HSLAHAEESD-NH2 (also called ID; NO; 49) [Ac-HSLAHAEESD-NH2]	no binding (tested: Kd from 10^-3 to 10^-4 M)
Ac-KNIAHAEEAD-NH2 (also called ID; NO; 50) [Ac-KNIAHAEEAD-NH2]	no binding (tested: Kd from 10^-3 to 10^-4 M)
Ac-EERNFSHAEE-NH2 (also called ID; NO; 56) [Ac-EERNFSHAEE-NH2]	no binding (tested: Kd from 10^-3 to 10^-4 M)
Ac-EEKNIAHAEE-NH2 (also called ID; NO; 55) [Ac-EEKNIAHAEE-NH2]	no binding (tested: Kd from 10^-3 to 10^-4 M)
Ac-LAHAEE-NH2 (also called ID; NO; 44) [Ac-LAHAEE-NH2]	no binding (tested: Kd from 10^-3 to 10^-4 M)
Ac-ISHAEE-NH2 (also called ID; NO; 48) [Ac-ISHAEE-NH2]	no binding (tested: Kd from 10^-3 to 10^-4 M)
Ac-LGHAEE-NH2 (also called ID; NO; 47) [Ac-LGHAEE-NH2]	no binding (tested: Kd from 10^-3 to 10^-4 M)
Ac-IAHAEE-NH2 (also called ID; NO; 45) [Ac-IAHAEE-NH2]	no binding (tested: Kd from 10^-3 to 10^-4 M)
Ac-FSHAEE-NH2 (also called ID; NO; 46) [Ac-FSHAEE-NH2]	no binding (tested: Kd from 10^-3 to 10^-4 M)
Ac-DEKQLGHAEE-NH2 (also called ID; NO; 57) [Ac-DEKQLGHAEE-NH2]	no binding (tested: Kd from 10^-3 to 10^-4 M)
Ac-KQLGHAEEGE-NH2 (also called ID; NO; 52) [Ac-KQLGHAEEGE-NH2]	no binding (tested: Kd from 10^-3 to 10^-4 M)
Ac-RNFSHAEESE-NH2 (also called ID; NO; 51) [Ac-RNFSHAEESE-NH2]	no binding (tested: Kd from 10^-3 to 10^-4 M)
Ac-HAEESE-NH2 (also called ID; NO; 41) [Ac-HAEESE-NH2]	no binding (tested: Kd from 10^-3 to 10^-4 M)
Ac-HAEEGE-NH2 (also called ID; NO; 42) [Ac-HAEEGE-NH2]	no binding (tested: Kd from 10^-3 to 10^-4 M)
Ac-HAEESD-NH2 (also called ID; NO; 39) [Ac-HAEESD-NH2]	no binding (tested: Kd from 10^-3 to 10^-4 M)
Ac-HAEEQE-NH2 (also called ID; NO; 43) [Ac-HAEEQE-NH2]	no binding (tested: Kd from 10^-3 to 10^-4 M)
Ac-HAEEAD-NH2 (also called ID; NO; 40) [Ac-HAEEAD-NH2]	no binding (tested: Kd from 10^-3 to 10^-4 M)
Ac-DDHSLAHAEE-NH2 (also called ID; NO; 54) [Ac-DDHSLAHAEE-NH2]	no binding (tested: Kd from 10^-3 to 10^-4 M)

biological target: complete β peptide 1-40, marked by a fluorescent marker (UniProt P05067 672-711, fluorescent marker, kind and position not stated); experiment: cell-based or functional assay
Sequence (P05067 672-711 limits assumed): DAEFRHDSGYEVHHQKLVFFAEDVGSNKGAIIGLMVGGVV

Binder	inhibition of the aggregation of the Aβ peptide (fluorescence of marked Aβ 1-40 bound to the wells, SYNTHALOID SCREENING PLATE kit), IC50 [µM]
Ac-RADD-NH2 (also called ID; NO) [Ac-RADD-NH2]	20
Ac-HAEE-NH2 (also called ID; NO; 19) [Ac-HAEE-NH2]	20
